According to PMC3970815 (Biochemistry, 2014):
Ends that are not written are not given here. fluorescein = fluorescein label, on the N-terminus

Target: T1, fluorescein-labeled consensus propeptide (FpCon)
T1 peptide: fluorescein-AVFLSREQANQVLQRRRR
Assay: fluorescence polarisation

B1: Wild-type human gamma-glutamyl carboxylase (GGCX) with a carboxyl-terminal 12-amino acid epitope tag, embedded in DOPC/MSP1D1 nanodiscs (enzyme, UniProt P38435 1-758, looked up)
chain: MAVSAGSARTSPSSDKVQKDKAELISGPRQDSRIGKLLGFEWTDLSSWRRLVTLLNRPTDPASLAVFRFLFGFLMVLDIPQERGLSSLDRKYLDGLDVCRFPLLDALRPLPLDWMYLVYTIMFLGALGMMLGLCYRISCVLFLLPYWYVFLLDKTSWNNHSYLYGLLAFQLTFMDANHYWSVDGLLNAHRRNAHVPLWNYAVLRGQIFIVYFIAGVKKLDADWVEGYSMEYLSRHWLFSPFKLLLSEELTSLLVVHWGGLLLDLSAGFLLFFDVSRSIGLFFVSYFHCMNSQLFSIGMFSYVMLASSPLFCSPEWPRKLVSYCPRRLQQLLPLKAAPQPSVSCVYKRSRGKSGQKPGLRHQLGAAFTLLYLLEQLFLPYSHFLTQGYNNWTNGLYGYSWDMMVHSRSHQHVKITYRDGRTGELGYLNPGVFTQSRRWKDHADMLKQYATCLSRLLPKYNVTEPQIYFDIWVSINDRFQQRIFDPRVDIVQAAWSPFQRTSWVQPLLMDLSPWRAKLQEIKSSLDNHTEVVFIADFPGLHLENFVSEDLGNTSIQLLQGEVTVELVAEQKNQTLREGEKMQLPAGEYHKVYTTSPSPSCYMYVYVNTTELALEQDLAYLQELKEKVENGSETGPLPPELQPLLEGEVKGGPEPTPLVQTFLRRQQRLQEIERRRNTPFHERFFRFLLRKLYVFRRSFLMTCISLRNLILGRPSLEQLAQEVTYANLRPFEAVGELNPSNTDSSHSNPPESNPDPVHSEF
modifications: glycoprotein (glycosylation sites shown in Figure 3); disulfide bond between cysteine 99 and cysteine 450
stoichiometry N: 1 propeptide per GGCX-nanodisc
